Results from publication PMC4788688, “Chemical shift assignment of the alternative scaffold protein IscA” (Biomolecular Nmr Assignments, 2016).

Target: the molecule itself
Assay: SEC; purified IscA in 20 mM Tris-HCl with 20 mM DTT or 5 mM TCEP; chromatograms showed no significant differences at 50, 150 or 1000 mM NaCl; self-association into dimers and higher species

B1: E. coli IscA protein (cluster-free) (natural protein)
chain: MSITLSDSAAARVNTFLANRGKGFGLRLGVRTSGCSGMAYVLEFVDEPTPEDIVFEDKGVKVVVDGKSLQFLDGTQLDFVKEGLNEGFKFTNPNVKDECGCGESFHV
notes: IscA of E. coli, recombinant, printed length 107 residues (11.5 kDa); cluster-free; 15N- or 13C/15N-labelled for NMR; also called alternative scaffold protein IscA; source: E. coli BL21 (DE3), pETM30 vector, purified (DEAE and Q anion exchange, Superdex 75 size exclusion)
Does B1 bind?
Result: binds
